Measurements published in paper PMC3206353 (The Journal of Cell Biology, 2011).

Tests used:
[1] = biological target: pyrene-labeled ADP-actin filaments (chicken breast muscle actin) (chicken, UniProt P68139 1-377, pyrene (pyrene iodoacetamide) on cysteine-374); experiment: other fluorescence titration
[2] = biological target: Mg-ATP-actin monomer (chicken breast muscle actin) (chicken, UniProt P68139 1-377); experiment: inhibition of nucleotide exchange

- Ka of the cooperative model (Kd = 1/(ω*Ka)) [1]: 0.08 µM⁻¹
- Kd [1]: 890 nM
- Kd [2]: 170 nM
B1: cofilin-M3 (natural protein)
chain: MSFSGVKVSPECLEAFQELKLGKSLRYVVFKMNDTKTEIVVEKKSTDKDFDTFLGDLPEKDCRYAIYDFEFNLGEGVRNKIIFISWSPDVAPIKSKMVYSSSKDTLRRAFTGIGTDIQATDFSEVAYETVLAAVTRK
